Starred links: 1 amine or outer side, 2 acyl side, 3 side chain; linkers in the order of their positions; H or OH if unused. Non-standard residues stand in square brackets, D forms with d. Groups on a side chain read outwards from the residue. No end group written: not given here. *: point of attachment. γGlu = O=C(O)[C@H](CCC(=O)[*:2])N[*:1]; Palmitoyl = CCCCCCCCCCCCCCCC(=O)*; αMeF = C[C@](N)(Cc1ccccc1)C(=O)O; αMeK = C[C@](N)(CCCCN)C(=O)O; αMeS = C[C@](N)(CO)C(=O)O; Aib = CC(C)(N)C(=O)O
How the values were obtained:
Experiment in all cases: cell-based or functional assay
[1] = target: T1, glucose-dependent insulinotropic peptide (gastric inhibitory polypeptide) receptor (GIPR) (human, UniProt P48546 22-466)
T1 sequence (looked up): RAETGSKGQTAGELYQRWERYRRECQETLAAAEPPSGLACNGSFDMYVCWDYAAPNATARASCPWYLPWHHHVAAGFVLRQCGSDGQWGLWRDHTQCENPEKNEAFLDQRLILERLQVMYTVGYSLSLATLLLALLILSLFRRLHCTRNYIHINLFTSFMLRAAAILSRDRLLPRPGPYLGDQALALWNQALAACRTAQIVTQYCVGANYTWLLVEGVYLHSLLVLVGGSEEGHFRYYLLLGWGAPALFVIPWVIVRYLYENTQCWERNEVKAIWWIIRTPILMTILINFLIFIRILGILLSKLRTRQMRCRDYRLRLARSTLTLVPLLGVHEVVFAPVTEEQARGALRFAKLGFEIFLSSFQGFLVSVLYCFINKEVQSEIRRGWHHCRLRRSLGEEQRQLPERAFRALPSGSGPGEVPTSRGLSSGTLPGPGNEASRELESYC

[2] = target: GLP-1 receptor (GLP-1R) (human, UniProt P43220 24-463)
[3] = target: glucagon receptor (GCGR) (human, UniProt P47871 26-477)
Sequence of glucagon receptor (GCGR) (P47871 26-477): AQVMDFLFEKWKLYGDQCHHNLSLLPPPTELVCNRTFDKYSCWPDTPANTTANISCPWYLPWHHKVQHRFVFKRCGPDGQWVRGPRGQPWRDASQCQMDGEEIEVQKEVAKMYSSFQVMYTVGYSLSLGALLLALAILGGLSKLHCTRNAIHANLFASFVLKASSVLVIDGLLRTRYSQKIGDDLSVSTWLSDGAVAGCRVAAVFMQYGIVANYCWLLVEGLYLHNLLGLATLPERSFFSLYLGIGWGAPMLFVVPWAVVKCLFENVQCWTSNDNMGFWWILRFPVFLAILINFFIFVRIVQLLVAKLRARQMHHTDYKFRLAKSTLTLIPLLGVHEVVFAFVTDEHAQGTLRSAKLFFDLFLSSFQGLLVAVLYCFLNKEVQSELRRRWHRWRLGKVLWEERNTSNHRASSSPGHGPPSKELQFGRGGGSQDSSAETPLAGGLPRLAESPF

Row | cAMP Primary assay EC50 GIP-R [1] [nM] | cAMP Primary assay EC50 GIP-R (2nd) [1] [nM] | cAMP Mean pM GLP-1R [2] [pM] | cAMP Primary assay EC50 GLP-1R n1 [2] [nM] | cAMP Primary assay EC50 GLP-1R n2 [2] [nM] | cAMP Primary assay EC50 Gluc-R [3] [nM] | cAMP Primary assay EC50 Gluc-R (2nd) [3] [nM] | Binder
1 | 27 | 27 | 8 | 0.0078 | 0.0081 | 27 | 27 | H[Aib]EGS[αMeF]TSDV[αMeS]S[αMeF]LEK([γGlu-Palmitoyl])EAA[αMeK]E[αMeF]IA[αMeF]VV[αMeK]GG-NH2 (N-terminus assumed; SMILES CCCCCCCCCCCCCCCC(=O)N[C@@H](CCC(=O)NCCCC[C@H](NC(=O)[C@H](CCC(=O)O)NC(=O)[C@H](CC(C)C)NC(=O)[C@](C)(Cc1ccccc1)NC(=O)[C@H](CO)NC(=O)[C@](C)(CO)NC(=O)[C@@H](NC(=O)[C@H](CC(=O)O)NC(=O)[C@H](CO)NC(=O)[C@@H](NC(=O)[C@](C)(Cc1ccccc1)NC(=O)[C@H](CO)NC(=O)CNC(=O)[C@H](CCC(=O)O)NC(=O)C(C)(C)NC(=O)[C@@H](N)Cc1c[nH]cn1)[C@@H](C)O)C(C)C)C(=O)N[C@@H](CCC(=O)O)C(=O)N[C@@H](C)C(=O)N[C@@H](C)C(=O)N[C@@](C)(CCCCN)C(=O)N[C@@H](CCC(=O)O)C(=O)N[C@@](C)(Cc1ccccc1)C(=O)N[C@H](C(=O)N[C@@H](C)C(=O)N[C@@](C)(Cc1ccccc1)C(=O)N[C@H](C(=O)N[C@H](C(=O)N[C@@](C)(CCCCN)C(=O)NCC(=O)NCC(N)=O)C(C)C)C(C)C)[C@@H](C)CC)C(=O)O) [SEQ ID NO 84]
2 | 28 | 28 | 101 | 0.066 | 0.14 | 28 | 28 | H[Aib]EGS[αMeF]TSDV[αMeS]S[αMeF]LK([γGlu-Palmitoyl])GEAA[αMeK]E[αMeF]IA[αMeF]VV[αMeK]GG-NH2 (N-terminus assumed; SMILES CCCCCCCCCCCCCCCC(=O)N[C@@H](CCC(=O)NCCCC[C@H](NC(=O)[C@H](CC(C)C)NC(=O)[C@](C)(Cc1ccccc1)NC(=O)[C@H](CO)NC(=O)[C@](C)(CO)NC(=O)[C@@H](NC(=O)[C@H](CC(=O)O)NC(=O)[C@H](CO)NC(=O)[C@@H](NC(=O)[C@](C)(Cc1ccccc1)NC(=O)[C@H](CO)NC(=O)CNC(=O)[C@H](CCC(=O)O)NC(=O)C(C)(C)NC(=O)[C@@H](N)Cc1c[nH]cn1)[C@@H](C)O)C(C)C)C(=O)NCC(=O)N[C@@H](CCC(=O)O)C(=O)N[C@@H](C)C(=O)N[C@@H](C)C(=O)N[C@@](C)(CCCCN)C(=O)N[C@@H](CCC(=O)O)C(=O)N[C@@](C)(Cc1ccccc1)C(=O)N[C@H](C(=O)N[C@@H](C)C(=O)N[C@@](C)(Cc1ccccc1)C(=O)N[C@H](C(=O)N[C@H](C(=O)N[C@@](C)(CCCCN)C(=O)NCC(=O)NCC(N)=O)C(C)C)C(C)C)[C@@H](C)CC)C(=O)O) [SEQ ID NO 85]

— patent US20200079833A1 (AstraZeneca / MedImmune, published 2020)
